Molecular target: HCV E1-E2 protein complex of hepatitis C virus isolate H77 (genotype 1a), expressed from plasmid pcDNA3.1-E1E2 (hepatitis C virus isolate H77 (genotype 1a)) (UniProt P27958)
Test: cell-based or functional assay

Substance: fully human monoclonal antibody Adalimumab (brand name Humira)
- Degree of inhibition (times): 1.09 times
- Infection effectiveness (percentage of fluorescent cells): 58.1%

Source: patent US20170121390A1
